B1: HDV Ribozyme (parent)
chain: GGCCGGCAUGGUCCCAGCCUCCUCGCUGGCGCCGGCUGGGCAACAUUCCGAGGGGACCGUCCCCUCGGUAAUGGCGAAUGGGACCCA

Variants of: B1
Assay: self-cleavage, relative activity (ratio to wild type); higher = more cleavage; co-transcriptional

Variant | self-cleavage
C3A G50U | 0.754
C3A G50A | 0.545
G2U C57U | 0.0365
C4A C13G | 0.0692
C3G G11U | 0.0683
C4A | 0.315
G2U A71G | 0.141
C3A G34A | 0.123
C3G G25U | 0.0277
C3U C44U | 0.378
C3U C44G | 0.354
C3G C75A | 0.119
C3A C13A | 0.0329
G2U G10A | 0
G2U G10U | 0.038
G2U G10C | 0.0621
C3U U47G | 0.594
C3G A8C | 0.293
C4A C61G | 0.193
C4A C61U | 0.267
C4A C61A | 0.219
C4A C14U | 0.554
C4A C14A | 0.119
G2U U72C | 0.0191

Variant | self-cleavage
C3U C61A | 0.801
C3G C19A | 0.0594
C3U C21G | 0.0723
C3A C85A | 0.646
G2U G82C | 0.112
G2U A43G | 0.0205
C3G G40U | 0.442
G2U C4A | 0
G2U C4U | 0.0755
C4A C24U | 0
C3G G31U | 0.0739
G2U C3U | 0.0228
G2U C3G | 0.0222
C3A C75A | 0.0784
C3A G54C | 0.34
C3U C32U | 0.338
C3U G11C | 0.191
C3U G11A | 0.262
C3G A71G | 0.631
C3G A71U | 0.502
C3A A16U | 0.318
C3A A45U | 0.269
C3G C61U | 0.729
C3G C61A | 0.87

Variant | self-cleavage
C3A U20C | 0.108
C3U A87G | 0.752
C3A C18U | 0.00889
C3A C18A | 0.0282
G2U G73A | 0.0484
C3G G10C | 0.151
C3U C48U | 0.804
C3G G50U | 0.665
G2U G31C | 0.0155
C3U C49U | 0.762
G2U G29C | 0.0252
G2U G52U | 0.055
G2U A45U | 0.0554
C3A G17C | 0.0329
C3A C22A | 0.0716
C3A C22U | 0.15
G2U C7G | 0
C3A G59C | 0.668
C3A G59A | 0.739
C4A C15A | 0.198
C3A A56C | 0.495
C3A G6C | 0.0282
C3A G6A | 0.0931
C3G A77C | 0.233

Variant | self-cleavage
C3A C64G | 0.32
C3U G10A | 0.513
G2U G55U | 0.0654
C3A A71G | 0.38
C3A A71U | 0.385
C3U G53C | 0.688
C3U G53U | 0.779
C3U G76A | 0.908
C3A U12A | 0.0848
C3A U12G | 0.241
G2U U23G | 0.0287
G2U U23A | 0.0391
C3G A51G | 0.746
G2U C18U | 0.0755
C3A G52U | 0.404
C3U A77G | 0.739
C3U A77U | 0.354
C3G C21U | 0.0326
C3U U12C | 0.107
C3U A16G | 0.675
C3A A87U | 0.632
C3A G28U | 0.0536
C3A G28A | 0.0138
C3A C61G | 0.512

Variant | self-cleavage
C3U C19A | 0.0573
C4A C86G | 0.405
C3G G80C | 0.0665
C3G G80A | 0.0911
C3U U60G | 0.591
C3U U60A | 0.769
C3A C48G | 0.795
C3G A16G | 0.408
C3U U27A | 0.701
C3U G28C | 0.0449
C4A A8C | 0
C4A A8U | 0.0723
G2U C64A | 0.0339
G2U C64U | 0.111
C4A C64A | 0.157
C4A C64G | 0.386
C3G G73C | 0.272
C3G C13U | 0.229
C3G U46G | 0.248
G2U U65G | 0.0782
G2U U65C | 0.0391
C4A C30G | 0
C4A C30U | 0.116
C3A G39U | 0.0777

Variant | self-cleavage
C3A U72C | 0.198
C3A U72G | 0.0712
G2U G28C | 0.0234
C4A A42G | 0.0875
C3A C30G | 0.0166
C3A C36A | 0.071
C3G G29A | 0.106
C3G A87U | 0.875
G2U A56G | 0.0674
C3U U72C | 0.471
C3U U72G | 0.453
G2U C44U | 0
G2U C44A | 0.0583
C3A C19G | 0.0441
C3G A78G | 0.151
C3U C33G | 0.0282
C3U C33A | 0.123
G2U G76A | 0.112
C3A U9C | 0.381
C4A C85A | 0.346
C4A C85U | 0.381
C3U A42C | 0.181
C4A C66U | 0.361
G2U U12C | 0.0241

Variant | self-cleavage
G2U U12G | 0.0346
G2U C58U | 0.109
C4A C84U | 0.172
C3U C84U | 0.808
C4A C26A | 0.332
C4A C26U | 0.415
G2U G35U | 0.0318
G2U G35A | 0.0308
C4A G17C | 0.0386
C3U C66U | 0.753
C3A G11U | 0.138
G2U U46A | 0.0187
G2U U46G | 0.0231
C3G G68U | 0.383
C3G G68C | 0.531
C3A G80A | 0.175
C3U U65G | 0.682
C3G G38A | 0.0386
C3G G38C | 0.192
C3A C24G | 0.089
C4A A78U | 0.0437
C3G A56U | 0.769
C3A C41U | 0.321
C3A C41A | 0.25

Variant | self-cleavage
G2U C33G | 0.00889
G2U C33A | 0.043
C3G C85G | 0.774
C3A C33G | 0
C3A C66A | 0.473
C3G U9C | 0.554
C3U G29A | 0.0154
C3U G82U | 0.332
C3A U23G | 0.352
C4A C33U | 0.104
G2U C86G | 0.117
C3U U9A | 0.904
C3A C26U | 0.853
C3A G74U | 0.156
C3A G74A | 0.0326
G2U C49A | 0.118
C3A G25U | 0.0631
C3U G52C | 0.546
C3U C15A | 0.481
C3U A45U | 0.432
C3A A83G | 0.434
C4A C7A | 0.0449
C3G G54U | 0.702
G2U C14U | 0.0468

Variant | self-cleavage
G2U C14G | 0.0354
G2U G34A | 0.0671
G2U G34C | 0.0484
C3G U20C | 0.0489
C3G G34C | 0.192
C3G G34A | 0.229
C3U C41U | 0.726
G2U G40U | 0.0132
C3G A83U | 0.0678
C3U G67U | 0.752
C3U G67A | 0.822
C3G G55A | 0.76
C3G G55U | 0.821
C3A C14G | 0.17
C3U C63A | 0.909
C3U C57A | 0.9
C3U C57U | 0.794
C3U G6C | 0
C3U A83U | 0.17
C3G G53C | 0.609
G2U G50C | 0.0179
G2U G50A | 0.047
C4A C62G | 0
C4A C62U | 0.248

Variant | self-cleavage
C4A C62A | 0.177
C4A G11U | 0
C3G G35A | 1.08
C3G U69C | 0.653
C3A A51C | 0.374
C3U U20G | 0.125
C3G C44A | 0.312
C3A C63A | 0.492
C3G C14A | 0.383
C3U C26U | 0.65
C3G G5U | 0.119
C3A U65C | 0.602
C3A U65A | 0.641
G2U C41A | 0.0589
C3G C30G | 0.0594
C3G C30A | 0.0639
C3A U79C | 0.106
C3A U79A | 0.175
C3A U79G | 0.175
G2U G81U | 0.0198
C3G G82A | 0.19
C3G G82U | 0.166
C3G U72G | 0.345
C3G G39U | 0.0989

Variant | self-cleavage
C4A G28C | 0.0396
C3A U47C | 0.422
G2U U79A | 0
G2U U79G | 0
C3G U23C | 0.48
C3U C24G | 0.0782
C3U C24U | 0.679
C3A C84U | 0.157
C3G C66G | 0.761
C3G C66U | 0.715
C3A C15U | 0.371
C3G G74A | 0.114
C3U G25U | 0.0175
C3U G25A | 0.138
C3G U27A | 0.308
G2U G39U | 0.0543
G2U G39A | 0.00989
C3G C58U | 0.709
C3G C58A | 0.842
G2U C84A | 0.0219
C3A A42U | 0.0773
C3U G81A | 0.17
C3A G5A | 0.0332
C3U G50U | 0.728

Variant | self-cleavage
C3A G53A | 0.519
C3A C58A | 0.609
C3A C58U | 0.596
C3U G34C | 0.182
C3U G34A | 0.106
C3U U69G | 0.649
G2U G38C | 0.0181
C3A C32G | 0.0266
C4A C22A | 0.0332
C3G C84A | 0.564
C3U C64G | 0.915
G2U C24A | 0.0554
C3A A70C | 0.501
C3A A8C | 0.299
C3A G31C | 0.0166
C3A G31A | 0.0507
C3G C57A | 0.802
C3G U60C | 0.748
C3G U60G | 0.773
C3G U60A | 0.772
C4A A70U | 0.252
C4A A70G | 0.189
C4A G25A | 0.089
C3U A56C | 0.675

Variant | self-cleavage
G2U A51G | 0.0683
C4A C63U | 0.344
C3G G6C | 0.0475
C3U U23G | 0.743
C3U U23A | 0.9
C3U U23C | 0.776
C4A C44G | 0.0665
C4A C44U | 0.0739
C3A G67A | 0.462
C3A G55A | 0.705
C3A G40C | 0.0923
C3A G40U | 0.256
C3G U37C | 1.08
C4A A16G | 0.344
C4A A16C | 0.0339
G2U U60C | 0.0287
C3A C57U | 0.701
C3A U69C | 0.665
G2U C75A | 0
C3U C36A | 0.132
G2U G17C | 0.0228
C3A U60G | 0.471
C4A G5C | 0.232
C4A G5U | 0.122

Variant | self-cleavage
C3U G74C | 0.0712
C3U G74U | 0.241
C3U G39C | 0.0804
C3U G39A | 0.21
G2U G68U | 0.134
G2U C85A | 0.104
C3U C75G | 0.104
C3U C75A | 0.101
C3U C75U | 0.197
C3A U46A | 0.148
C3G C36G | 0.0343
G2U A87U | 0.0747
C3U G35U | 0.649
C3U G35A | 0.694
C3U C85A | 0.646
C3U C85U | 0.626
C3U U37A | 0.128
C4A C19G | 0.0339
G2U C26U | 0.0852
C3A G68C | 0.363
C3A G68U | 0.465
C3U G31C | 0.168
